From article doi:10.1101/506113 (bioRxiv, 2018)

Target: LgB-NIX (NIX with Large BiT at its N-terminal end) (UniProt O60238 1-219)
Experiment: split reporter

Sequence of LgB-NIX (NIX with Large BiT at its N-terminal end) (O60238 whole entry): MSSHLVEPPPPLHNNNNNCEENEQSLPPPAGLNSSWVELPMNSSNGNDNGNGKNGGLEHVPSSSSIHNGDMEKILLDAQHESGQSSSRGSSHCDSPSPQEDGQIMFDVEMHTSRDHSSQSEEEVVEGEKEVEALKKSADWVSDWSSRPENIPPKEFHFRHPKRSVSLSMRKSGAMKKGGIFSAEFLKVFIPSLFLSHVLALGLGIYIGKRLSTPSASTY

B1: vIRF-1-SmB (vIRF-1 with Small BiT at its C-terminal end) (natural protein)
chain: MDPGQRPNPFGAPGAIPKKPCLSQGSPGTSGSGAPCDEPSRSESPGEGPSGTGGSAAAGDITRQAVVAAITEWSRTRQLRISTGASEGKASIKDWIVCQVNSGKFPGVEWEDEERTRFRIPVTPLADPCFEWRRDGELGVVYIRERGNMPVDASFKGTRGRRRMLAALRRTRGLQEIGKGISQDGHHFLVFRVRKPEEEQCVECGVVAGAVHDFNNMARLLQEGFFSPGQCLPGEIVTPVPSCTTAEGQEAVIDWGRLFIRMYYNGEQVHELLTTSQSGCRISSALRRDPAVHYCAVGSPGQVWLPNVPNLACEIAKRELCDTLDACAKGILLTSSCNGIFCVCYHNGPVHFIGNTVPPDSGPLLLPQGKPTRIFNPNTFLVGLANSPLPAPSHVTCPLVKLWLGKPVAVGKLEPHAPSPRDFAARCSNFSDACVVLEIMPKPLWDAMQ
For B1, which “fold luminescence over HT-SmB with LgB-NIX” value is on record?
The value was 10 fold.
